Results taken from US20100184614, “MICROARRAY SYSTEMS AND METHODS FOR IDENTIFYING DNA-BINDING PROTEINS” (published 2010).

Target: Estrogen receptor alpha (UniProt P03372 P03372:1-595)
Assay: EMSA; column gel, 30 min
Conditions: tags: Invitrogen; label: IRDye 700 or Cy3; partially double-stranded; 3' single-stranded tag
Protocol: A similar result is obtained using recombinant estrogen receptor alpha (ER-alpha) protein. ER-alpha is obtained from INVITROGEN® and mixed with YZ11 (its specific probe) labeled with IR Dye 700. The mixture was then loaded on the column gel and run for 30 minutes (FIG. 10).

Estrogen receptor alpha, sequence (P03372 whole entry, one chain of several): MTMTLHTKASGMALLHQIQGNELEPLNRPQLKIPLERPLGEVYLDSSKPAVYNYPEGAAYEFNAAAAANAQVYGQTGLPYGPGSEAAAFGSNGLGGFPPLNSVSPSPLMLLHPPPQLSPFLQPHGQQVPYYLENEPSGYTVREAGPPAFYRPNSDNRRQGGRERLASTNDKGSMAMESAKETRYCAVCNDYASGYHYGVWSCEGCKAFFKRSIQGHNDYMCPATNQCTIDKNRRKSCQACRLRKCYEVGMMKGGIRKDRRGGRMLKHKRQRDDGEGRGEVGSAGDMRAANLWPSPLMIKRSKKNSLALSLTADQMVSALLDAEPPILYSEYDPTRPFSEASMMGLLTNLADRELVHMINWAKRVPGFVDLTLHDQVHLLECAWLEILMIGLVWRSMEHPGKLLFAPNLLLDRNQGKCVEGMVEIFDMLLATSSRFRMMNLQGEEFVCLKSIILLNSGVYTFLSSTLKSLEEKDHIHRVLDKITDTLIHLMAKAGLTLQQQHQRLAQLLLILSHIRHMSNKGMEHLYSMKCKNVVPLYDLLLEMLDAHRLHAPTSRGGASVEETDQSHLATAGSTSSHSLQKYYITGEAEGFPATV

B1: YZ-11 (Table 17) (mixed)
DNA 1: CCTGCCAGGTCGCGCTGCCCTCCTTCTACCATGCCTTAGGAGAATTGTTTTGTTT
DNA 2: GGTAGAAGGAGGGCAGCGCGACCTGGCAGG
- binding result: binds
